Data as given in paper PMC11331505, “Binding Behavior of Human Hepatoma-Derived Growth Factor on SMYD1”.

Experiments:
D. ficus RecA (D. ficus) = experiment: PIFE (Cy3 fluorescence enhancement); conditions: 1 nM DNA; HDGF assays: 46 mM NaCl, 0.9 mM KCl, 3.3 mM Na2HPO4, 0.66 mM KH2PO4, pH 7.4; at least 1 h on ice; 1-10 nM Cy3 DNA, 10 pM-100 nM protein; RecA dsDNA control at …
[1] = biological target: T1, HDGF PWWP domain;HDGF C140 domain (human;human, UniProt P51858;P51858 1-100;101-240, |); experiment: PIFQ (Cy3 fluorescence quenching); 1 nM DNA; equal amounts premixed; Hill n=0.50; HDGF assays: 46 mM NaCl, 0.9 mM KCl, 3.3 mM Na2HPO4, 0.66 mM KH2PO4, pH 7.4; at least 1 h on ice; 1-10 nM Cy3 DNA, 10 pM-100 nM protein; RecA dsDNA control at pH 7.5; conditions: protein: recombinant;recombinant; copies: 1;1; label: Cy3
T1 sequence (P51858 1-100, chain 1 of 2): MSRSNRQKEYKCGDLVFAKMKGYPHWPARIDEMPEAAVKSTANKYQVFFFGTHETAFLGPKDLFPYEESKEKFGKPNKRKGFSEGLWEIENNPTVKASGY
T1 sequence (P51858 101-240, chain 2 of 2): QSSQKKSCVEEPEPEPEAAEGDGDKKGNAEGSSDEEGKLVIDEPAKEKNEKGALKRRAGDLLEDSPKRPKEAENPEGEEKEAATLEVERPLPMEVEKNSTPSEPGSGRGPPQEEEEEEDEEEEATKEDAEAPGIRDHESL

HDGF PWWP domain [2] = biological target: T2, HDGF PWWP domain (human, UniProt P51858 1-100); experiment: PIFQ (Cy3 fluorescence quenching); 1 nM DNA; Hill n=1.00; HDGF assays: 46 mM NaCl, 0.9 mM KCl, 3.3 mM Na2HPO4, 0.66 mM KH2PO4, pH 7.4; at least 1 h on ice; 1-10 nM Cy3 DNA, 10 pM-100 nM protein; RecA dsDNA control at pH 7.5; conditions: protein: recombinant; label: Cy3
T2 sequence (P51858 1-100): as the sequence (P51858 1-100, chain 1 of 2) above

HDGF [3] = biological target: T3, HDGF (human, UniProt P51858 1-240); experiment: PIFQ (Cy3 fluorescence quenching); 1 nM DNA; Hill n=0.55; HDGF assays: 46 mM NaCl, 0.9 mM KCl, 3.3 mM Na2HPO4, 0.66 mM KH2PO4, pH 7.4; at least 1 h on ice; 1-10 nM Cy3 DNA, 10 pM-100 nM protein; RecA dsDNA control at pH 7.5; conditions: protein: recombinant; label: Cy3
T3 sequence (P51858 whole entry, the tested form may be a part): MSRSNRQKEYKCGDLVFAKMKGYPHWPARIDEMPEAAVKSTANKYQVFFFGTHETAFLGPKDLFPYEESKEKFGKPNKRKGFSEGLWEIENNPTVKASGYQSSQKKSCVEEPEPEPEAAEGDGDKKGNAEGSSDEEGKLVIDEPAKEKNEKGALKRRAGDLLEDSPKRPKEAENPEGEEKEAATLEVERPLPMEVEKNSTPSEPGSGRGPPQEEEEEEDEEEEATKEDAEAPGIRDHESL

HDGF C140 domain [4] = biological target: T4, HDGF C140 domain (human, UniProt P51858 101-240); experiment: PIFQ (Cy3 fluorescence quenching); 1 nM DNA; HDGF assays: 46 mM NaCl, 0.9 mM KCl, 3.3 mM Na2HPO4, 0.66 mM KH2PO4, pH 7.4; at least 1 h on ice; 1-10 nM Cy3 DNA, 10 pM-100 nM protein; RecA dsDNA control at pH 7.5; conditions: protein: recombinant
T4 sequence (P51858 101-240): as the sequence (P51858 101-240, chain 2 of 2) above

HDGF S103A [5] = biological target: T5, HDGF S103A (human, UniProt P51858 1-240, S103A); experiment: PIFQ (Cy3 fluorescence quenching); 1 nM DNA; Hill n=0.50; HDGF assays: 46 mM NaCl, 0.9 mM KCl, 3.3 mM Na2HPO4, 0.66 mM KH2PO4, pH 7.4; at least 1 h on ice; 1-10 nM Cy3 DNA, 10 pM-100 nM protein; RecA dsDNA control at pH 7.5; conditions: protein: recombinant; label: Cy3
T5 sequence (P51858 whole entry S103A): as the sequence (P51858 whole entry, the tested form may be a part) above, with S103A counted along it

HDGF [6] = biological target: T3, HDGF; experiment: PIFQ (Cy3 fluorescence quenching); 10 nM DNA; Hill fit (approximation model 0.031 nM); HDGF assays: 46 mM NaCl, 0.9 mM KCl, 3.3 mM Na2HPO4, 0.66 mM KH2PO4, pH 7.4; at least 1 h on ice; 1-10 nM Cy3 DNA, 10 pM-100 nM protein; RecA dsDNA control at pH 7.5; conditions: protein: recombinant; label: 5' Cy3
HDGF [7] = biological target: T3, HDGF; experiment: PIFQ (Cy3 fluorescence quenching); 1 nM DNA; Hill fit (approximation model 0.017 nM); HDGF assays: 46 mM NaCl, 0.9 mM KCl, 3.3 mM Na2HPO4, 0.66 mM KH2PO4, pH 7.4; at least 1 h on ice; 1-10 nM Cy3 DNA, 10 pM-100 nM protein; RecA dsDNA control at pH 7.5; conditions: protein: recombinant; label: 5' Cy3
HDGF PWWP domain [8] = biological target: T2, HDGF PWWP domain; experiment: PIFQ (Cy3 fluorescence quenching); 1 nM DNA; n=1.00; HDGF assays: 46 mM NaCl, 0.9 mM KCl, 3.3 mM Na2HPO4, 0.66 mM KH2PO4, pH 7.4; at least 1 h on ice; 1-10 nM Cy3 DNA, 10 pM-100 nM protein; RecA dsDNA control at pH 7.5; conditions: protein: recombinant; label: 5' Cy3
HDGF S103A [9] = biological target: T5, HDGF S103A; experiment: PIFQ (Cy3 fluorescence quenching); 1 nM DNA; Hill n=0.67; HDGF assays: 46 mM NaCl, 0.9 mM KCl, 3.3 mM Na2HPO4, 0.66 mM KH2PO4, pH 7.4; at least 1 h on ice; 1-10 nM Cy3 DNA, 10 pM-100 nM protein; RecA dsDNA control at pH 7.5; conditions: protein: recombinant; label: 5' Cy3
HDGF [10] = biological target: T3, HDGF; experiment: PIFQ (Cy3 fluorescence quenching); 5 nM DNA; Hill fit (approximation model 0.019 nM); HDGF assays: 46 mM NaCl, 0.9 mM KCl, 3.3 mM Na2HPO4, 0.66 mM KH2PO4, pH 7.4; at least 1 h on ice; 1-10 nM Cy3 DNA, 10 pM-100 nM protein; RecA dsDNA control at pH 7.5; conditions: protein: recombinant; label: 5' Cy3
HDGF C140 domain [11] = biological target: T4, HDGF C140 domain; experiment: PIFQ (Cy3 fluorescence quenching); 1 nM DNA; up to 100 nM protein; HDGF assays: 46 mM NaCl, 0.9 mM KCl, 3.3 mM Na2HPO4, 0.66 mM KH2PO4, pH 7.4; at least 1 h on ice; 1-10 nM Cy3 DNA, 10 pM-100 nM protein; RecA dsDNA control at pH 7.5; conditions: protein: recombinant; label: 5' Cy3
HDGF PWWP domain [12] = biological target: T2, HDGF PWWP domain; experiment: PIFQ (Cy3 fluorescence quenching); 10 nM DNA; approximation model; less reliable (protein depletion); HDGF assays: 46 mM NaCl, 0.9 mM KCl, 3.3 mM Na2HPO4, 0.66 mM KH2PO4, pH 7.4; at least 1 h on ice; 1-10 nM Cy3 DNA, 10 pM-100 nM protein; RecA dsDNA control at pH 7.5; conditions: protein: recombinant; label: 5' Cy3
[13] = biological target: T1, HDGF PWWP domain;HDGF C140 domain; experiment: PIFQ (Cy3 fluorescence quenching); 1 nM DNA; equal amounts premixed; Hill n=0.63; HDGF assays: 46 mM NaCl, 0.9 mM KCl, 3.3 mM Na2HPO4, 0.66 mM KH2PO4, pH 7.4; at least 1 h on ice; 1-10 nM Cy3 DNA, 10 pM-100 nM protein; RecA dsDNA control at pH 7.5; conditions: protein: recombinant;recombinant; copies: 1;1; label: 5' Cy3
HDGF PWWP domain [14] = biological target: T2, HDGF PWWP domain; experiment: PIFQ (Cy3 fluorescence quenching); 5 nM DNA; approximation model; HDGF assays: 46 mM NaCl, 0.9 mM KCl, 3.3 mM Na2HPO4, 0.66 mM KH2PO4, pH 7.4; at least 1 h on ice; 1-10 nM Cy3 DNA, 10 pM-100 nM protein; RecA dsDNA control at pH 7.5; conditions: protein: recombinant; label: 5' Cy3
HDGF [15] = biological target: T3, HDGF; experiment: PIFQ (Cy3 fluorescence quenching); 1 nM DNA; HDGF assays: 46 mM NaCl, 0.9 mM KCl, 3.3 mM Na2HPO4, 0.66 mM KH2PO4, pH 7.4; at least 1 h on ice; 1-10 nM Cy3 DNA, 10 pM-100 nM protein; RecA dsDNA control at pH 7.5; conditions: protein: recombinant; label: 5' Cy3
HDGF S103A [16] = biological target: T5, HDGF S103A; experiment: as above; conditions: protein: recombinant; label: 5' Cy3
HDGF PWWP domain [17] = biological target: T2, HDGF PWWP domain; experiment: PIFQ (Cy3 fluorescence quenching); 1 nM DNA; Hill fit; HDGF assays: 46 mM NaCl, 0.9 mM KCl, 3.3 mM Na2HPO4, 0.66 mM KH2PO4, pH 7.4; at least 1 h on ice; 1-10 nM Cy3 DNA, 10 pM-100 nM protein; RecA dsDNA control at pH 7.5; conditions: protein: recombinant; label: 5' Cy3
E. coli RecA = E. coli RecA (E. coli, UniProt P0A7G6 2-353); experiment: PIFE (Cy3 fluorescence enhancement); 1 nM DNA; approximation model; HDGF assays: 46 mM NaCl, 0.9 mM KCl, 3.3 mM Na2HPO4, 0.66 mM KH2PO4, pH 7.4; at least 1 h on ice; 1-10 nM Cy3 DNA, 10 pM-100 nM protein; RecA dsDNA control at pH 7.5; conditions: label: Cy3
Sequence of E. coli RecA (P0A7G6 2-353): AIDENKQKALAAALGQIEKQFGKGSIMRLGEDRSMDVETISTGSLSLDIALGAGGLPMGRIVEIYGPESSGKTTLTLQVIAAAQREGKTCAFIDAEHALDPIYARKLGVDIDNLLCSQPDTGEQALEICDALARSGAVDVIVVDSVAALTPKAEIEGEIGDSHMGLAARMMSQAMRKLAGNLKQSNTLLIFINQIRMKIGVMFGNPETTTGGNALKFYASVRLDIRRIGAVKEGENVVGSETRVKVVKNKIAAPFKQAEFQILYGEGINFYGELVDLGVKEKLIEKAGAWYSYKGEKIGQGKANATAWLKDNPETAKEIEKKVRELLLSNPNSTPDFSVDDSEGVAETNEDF

HDGF PWWP domain [18] = biological target: T2, HDGF PWWP domain; experiment: PIFQ (Cy3 fluorescence quenching); 1 nM DNA; Hill n=1.0; unit not printed in legend; HDGF assays: 46 mM NaCl, 0.9 mM KCl, 3.3 mM Na2HPO4, 0.66 mM KH2PO4, pH 7.4; at least 1 h on ice; 1-10 nM Cy3 DNA, 10 pM-100 nM protein; RecA dsDNA control at pH 7.5; conditions: protein: recombinant; label: 3' Cy3
HDGF [19] = biological target: T3, HDGF; experiment: PIFQ (Cy3 fluorescence quenching); 1 nM DNA; Hill n=0.60; unit not printed in legend; HDGF assays: 46 mM NaCl, 0.9 mM KCl, 3.3 mM Na2HPO4, 0.66 mM KH2PO4, pH 7.4; at least 1 h on ice; 1-10 nM Cy3 DNA, 10 pM-100 nM protein; RecA dsDNA control at pH 7.5; conditions: protein: recombinant; label: 3' Cy3

Work on “TTTTTTTTTTTTTTTTTTTTTTTTTTTTTTTTTTTTTTTT [poly(dT)40 ssDNA]” yielded a Kd (D. ficus RecA (D. ficus)) of 13.6 nM.

For “TTTTTTTTTTTTTTTTTTTTTTTTTTTTTTTTTTTTTTTT (double strand) [poly(T-A)40 dsDNA]”, the Kd (D. ficus RecA (D. ficus)) was 19 nM.

B1: GC-rich dsDNA (dsDNA)
DNA 1: TCCTCGCTGCCGTCGGCCA
DNA 2: TGGCCGACGGCAGCGAGGA
With B1 the Kd [1] was 0.45 ± 0.06 nM, the Kd (HDGF PWWP domain [2]) was 0.97 ± 0.19 nM and the Kd (HDGF [3]) was 0.25 ± 0.03 nM. For the same molecule, the binding result (HDGF C140 domain [4]; label: Cy3) was “no binding” and the Kd (HDGF S103A [5]) was 0.34 ± 0.06 nM.

B2: 15 bp SMYD1 dsDNA (5' Cy3) (dsDNA)
DNA 1: TTCAAGACCAGCCTG
DNA 2: CAGGCTGGTCTTGAA
With B2 the Kd (HDGF [6]) was 0.076 ± 0.02 nM, the Kd (HDGF [7]) was 0.095 ± 0.016 nM and the Kd (HDGF PWWP domain [8]) was 0.94 ± 0.1 nM. The Kd (HDGF S103A [9]) was 0.072 ± 0.003 nM, the Kd (HDGF [10]) was 0.085 ± 0.024 nM and the binding result (HDGF C140 domain [11]) was “no binding”. For the same molecule, the Kd (HDGF PWWP domain [12]) was 1.6 ± 0.2 nM, the Kd [13] was 0.12 ± 0.04 nM and the Kd (HDGF PWWP domain [14]) was ~1 nM.

B3: poly(T-A)15 dsDNA (dsDNA)
DNA 1: TTTTTTTTTTTTTTT
DNA 2: AAAAAAAAAAAAAAA
B3: no binding (HDGF C140 domain [4]; label: 5' Cy3); no binding (HDGF [15]); no binding (HDGF S103A [16]). The Kd (HDGF PWWP domain [17]) was 1.6 ± 0.2 nM.

Work on TTTTTTTTTTTTTTTTTTTTTTTTTTTTTTTTTTTTTTTT (ssDNA) [poly(dT)40 ssDNA] yielded a Kd (E. coli RecA) of 34.5 ± 6.8 nM.

B4: 15 bp SMYD1 dsDNA (3' Cy3) (dsDNA)
DNA 1: TTCAAGACCAGCCTG
DNA 2: CAGGCTGGTCTTGAA
B4 showed a Kd (HDGF PWWP domain [18]) of 1.4 ± 0.2 nM and a Kd (HDGF [19]) of 0.08 ± 0.004 nM.
